Results on five molecules are retold here after patent publication US20240043508A1 (KOOKMIN UNIVERSITY INDUSTRY ACADEMY COOPERATION FOUNDATION, published 2024).

Numbering of substitutions follows the chain as printed.

In assay [1] the target is T1, SARS-CoV-2 S protein of B.1.1.7 (alpha) variant, on pseudotyped MLV particles (SARS-CoV-2, UniProt P0DTC2 14-1273). The assay is described as follows: cell-based or functional assay.
The target of assay [2] is T2, SARS-CoV-2 S protein of B.1.617.2 (delta) variant, on pseudotyped MLV particles (SARS-CoV-2, UniProt P0DTC2 14-1273). The assay is described as follows: cell-based or functional assay.
For assay [3], the target named is T1, SARS-CoV-2 S protein of B.1.1.7 (alpha) …. The assay is described as follows: cell-based or functional assay. The source holds these as a separate data set.
In assay [4] the target is T3, SARS-CoV-2 S protein of B.1.617 (kappa) variant, on pseudotyped MLV particles (SARS-CoV-2, UniProt P0DTC2 14-1273). The assay is described as follows: cell-based or functional assay.
In assay [5] the target is T2, SARS-CoV-2 S protein of B.1.617.2 …. The assay is described as follows: cell-based or functional assay. This is another data set of the same source.
For assay [6], the target named is SARS-CoV-2 RBD protein (Fc-tagged) (SARS-CoV-2, UniProt P0DTC2 319-541).
Assay [7] deals with T4, SARS-CoV-2 RBD, Delta (B.1.617.2) variant (SARS-CoV-2, UniProt P0DTC2 319-541).
T4 construct: domain: RBD
The assay is described as follows: competition ELISA: RBD-His with antibody, binding to coated hACE2-Fc.

Assay [8] has as its target T5, SARS-CoV-2 RBD, Gamma (P.1) variant (SARS-CoV-2, UniProt P0DTC2 319-541).
T5 construct: domain: RBD
The assay is described as above.

In assay [9] the target is T6, SARS-CoV-2 RBD, Kappa (B.1.617.1) variant (SARS-CoV-2, UniProt P0DTC2 319-541).
T6 construct: domain: RBD
The description is as above.

The target of assay [10] is T7, SARS-CoV-2 RBD, Beta (B.1.351) variant (SARS-CoV-2, UniProt P0DTC2 319-541).
T7 construct: domain: RBD
The assay is described as above.

Assay [11] addresses T8, SARS-CoV-2 RBD, Alpha (B.1.1.7) variant (SARS-CoV-2, UniProt P0DTC2 319-541).
T8 construct: domain: RBD
The assay is described as follows: SPR, RBD immobilised. (Surface plasmon resonance follows binding to a sensor surface in real time, without labels.)

Assay [12] addresses T4, SARS-CoV-2 RBD, Delta (B.1.617.2) …. Description: SPR, RBD immobilised.
For assay [13], the target named is T5, SARS-CoV-2 RBD, Gamma (P.1) variant. The assay is described as follows: SPR, RBD immobilised.
Assay [14] has as its target T6, SARS-CoV-2 RBD, Kappa (B.1.617.1) …. Description: SPR, RBD immobilised.
Assay [15] deals with T7, SARS-CoV-2 RBD, Beta (B.1.351) variant. Description: SPR, RBD immobilised.
Assay [16] addresses T8, SARS-CoV-2 RBD, Alpha (B.1.1.7) variant. The assay is described as follows: SPR, RBD immobilised, 1:1 model.
Assay [17] concerns the target T4, SARS-CoV-2 RBD, Delta (B.1.617.2) …. The assay is described as follows: SPR, RBD immobilised, 1:1 model.
For assay [18], the target named is T5, SARS-CoV-2 RBD, Gamma (P.1) variant. Description: SPR, RBD immobilised, 1:1 model.
Assay [19] deals with T6, SARS-CoV-2 RBD, Kappa (B.1.617.1) …. The assay is described as follows: SPR, RBD immobilised, 1:1 model.
Assay [20] has as its target T7, SARS-CoV-2 RBD, Beta (B.1.351) variant. The assay is described as follows: SPR, RBD immobilised, 1:1 model.
The target in assay [21] is SARS-CoV-2 S protein of the wild-type, on pseudotyped lentiviral particles (SARS-CoV-2). Description: cell-based or functional assay.
Assay [22] addresses SARS-CoV-2 S protein of beta variant, on pseudotyped MLV particles (SARS-CoV-2, UniProt P0DTC2 14-1273). Description: cell-based or functional assay.
Assay [23] has as its target T3, SARS-CoV-2 S protein of B.1.617 (kappa) …. The assay is described as follows: cell-based or functional assay. The source holds these as a separate data set.
The target of assay [24] is SARS-CoV-2 S protein of gamma variant, on pseudotyped MLV particles (SARS-CoV-2, UniProt P0DTC2 14-1273). Description: cell-based or functional assay.

The term IC50 denotes the concentration that gives 50% inhibition. Read a high IC50 as weaker potency. Broadly, the Kd is a measure of binding affinity in units of concentration. The low end stands for tighter binding, the high end for weaker binding. What is called kon is the rate constant with which the complex forms. Low readings indicate slower complex formation, high ones faster complex formation.

B1: RD3 (antibody, V domains shown)
VH: EVQLLESGGGLVQPGGSLRLSCAASGFTFSDYAMSWVRQAPGKGLEWVSWIYSGSGNKYYADSVKGRFTISRDNSKNTLYLQMNSLRAEDTAVYYCARFPIARTSNSQSSYDGMDVWGQGTLVTVSS
VL: QSVLTQPPSASGTPGQRVTISCSGSSSNIGSNAVSWYQQLPGTAPKLLIYADNKRPSGVPDRFSGSKSGTSASLAISGLRSEDEADYYCGAWDSSLNAYVFGGGTKLTVL
notes: also called K102.1
Take B1: the “IC50 (nM), pseudotyped virus infection” value in assay [1] stood at 6.16 nM; in [2], 4.48 nM. For the same molecule, the “IC50 (nM), pseudovirus neutralization, luciferase in 293T/hACE2 cells” value in assay [3] was 6.16 nM; in assay [4] it was 94.8 nM; in [5] it was 4.48 nM.

B2: RG6 (antibody, V domains shown)
VH: EVQLLESGGGLVQPGGSLRLSCAASGFTFSDYSMSWVRQAPGKGLEWVSGIYHSDGSKYYADSVKGRFTISRDNSKNTLYLQMNSLRAEDTAVYYCARFDPVFDYWGQGTLVTVSS
VL: B1 VL with S23T, S35N, N53S, K54N, S94A, N97S
B2: in assay [6], the midpoint of inhibition, the IC50, lay at 84 nM.

B3: RB6 (antibody, V domains shown)
VH: EVQLLESGGGLVQPGGSLRLSCAASGFTFSSYDMSWVRQAPGKGLEWVSGISYSGGSTYYADSVKGRFTISRDNSKNTLYLQMNSLRAEDTAVYYCARDVNFVPLVTFDYWGQGTLVTVSS
VL: B1 VL with I20L, S23T, A33S, S35T, A51D, K54Q, A91T, S94Y, N97S
notes: also called K102.2
In the case of B3, the 50% inhibitory concentration (IC50) stood at 1.14 nM in assay [7], 3.23 nM in [8], 0.4 nM in assay [9] and 0.86 nM in assay [10]. In addition, the Kd was 3.62 nM in assay [11]; 1.53 nM in assay [12]; 2.07 nM in [13]; 1.68 nM in assay [14]; 1.6 nM in assay [15]; 3.62 nM in assay [16]. The Kd was found to be 1.53 nM in assay [17], 2.07 nM in assay [18], 1.68 nM in assay [19] and 1.6 nM in assay [20]. Further, the on-rate (kon) in assay [11] was 154000 M⁻¹ s⁻¹; in assay [12] it was 333000 M⁻¹ s⁻¹; in assay [13], 454000 M⁻¹ s⁻¹; in assay [14] it was 407000 M⁻¹ s⁻¹; in assay [15], 492000 M⁻¹ s⁻¹; in [16] it was 154000 M⁻¹ s⁻¹. The kon in assay [17] worked out at 333000 M⁻¹ s⁻¹; in assay [18] it was 454000 M⁻¹ s⁻¹; in assay [19], 407000 M⁻¹ s⁻¹; in [20], 492000 M⁻¹ s⁻¹.

B4: K202.A (bispecific antibody)
heavy: EVQLLESGGGLVQPGGSLRLSCAASGFTFSDYAMSWVRQAPGKGLEWVSWIYSGSGNKYYADSVKGRFTISRDNSKNTLYLQMNSLRAEDTAVYYCARFPIARTSNSQSSYDGMDVWGQGTLVTVSSASTKGPSVFPLAPCSRSTSESTAALGCLVKDYFPEPVTVSWNSGALTSGVHTFPAVLQSSGLYSLSSVVTVPSSSLGTKTYTCNVDHKPSNTKVDKRVESKYGPPCPPCPPCPAPEFLGGPSVFLFPPKPKDTLMISRTPEVTCVVVDVSQEDPEVQFNWYVDGVEVHNAKTKPREEQFNSTYRVVSVLTVLHQDWLNGKEYKCKVSNKGLPSSIEKGQPREPQVYTLPPSQEEMTKNQVSLTCLVKGFYPSDIAVEWESNGQPENNYKTTPPVLDSDGSFFLYSRLTVDKSRWQEGNVFSCSVMHEALHNHYTQKSLSLSLGK
light: QSVLTQPPSASGTPGQRVTISCSGSSSNIGSNAVSWYQQLPGTAPKLLIYADNKRPSGVPDRFSGSKSGTSASLAISGLRSEDEADYYCGAWDSSLNAYVFGGGTKLTVLVAAPSVFIFPPSDEQLKSGTASVVCLLNNFYPREAKVQWKVDNALQSGNSQESVTEQDSKDSTYSLSSTLTLSKADYEKHKVYACEVTHQGLSSPVTKSFNRGEC
scFv: EVQLLESGGGLVQPGGSLRLSCAASGFTFSSYDMSWVRQAPGKGLEWVSGISYSGGSTYYADSVKGRFTISRDNSKNTLYLQMNSLRAEDTAVYYCARDVNFVPLVTFDYWGQGTLVTVSSGGGGSGGGGSGGGGSQSVLTQPPSASGTPGQRVTLSCTGSSSNIGSNSVTWYQQLPGTAPKLLIYDDNQRPSGVPDRFSGSKSGTSASLAISGLRSEDEADYYCGTWDYSLSAYVFGGGTKLTVL
Consider B4, for which the “IC50 (nM), pseudotyped virus infection” value was determined as 0.27 nM in [21]; 0.46 nM in assay [22]; 0.18 nM in assay [1]; 0.24 nM in assay [23]; 1.83 nM in [2]; 1.74 nM in [24].

B5: K202.B (bispecific antibody)
heavy: B4 heavy
light: B4 light
scFv: B4 scFv
Regarding B5, the “IC50 (nM), pseudotyped virus infection” value stood at 0.16 nM in assay [21]; 0.1 nM in assay [22]; 0.15 nM in assay [1]; 0.05 nM in [23]; 0.13 nM in [2]; 1.04 nM in assay [24].
